The record followed here is patent publication US20240317847A1 (Bayer, published 2024).

The target of one assay is T1, human IL-11 (human, UniProt P20809 22-199).
T1 sequence: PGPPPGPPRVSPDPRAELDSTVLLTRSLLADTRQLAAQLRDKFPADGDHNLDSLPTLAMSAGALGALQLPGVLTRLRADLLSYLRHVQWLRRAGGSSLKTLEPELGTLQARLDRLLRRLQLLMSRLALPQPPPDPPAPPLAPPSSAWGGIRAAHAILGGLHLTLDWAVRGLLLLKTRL
Nature of the assay: cell-based or functional assay.

The next assay addresses T2, murine IL-11 (mouse, UniProt P47873 22-199).
T2 sequence: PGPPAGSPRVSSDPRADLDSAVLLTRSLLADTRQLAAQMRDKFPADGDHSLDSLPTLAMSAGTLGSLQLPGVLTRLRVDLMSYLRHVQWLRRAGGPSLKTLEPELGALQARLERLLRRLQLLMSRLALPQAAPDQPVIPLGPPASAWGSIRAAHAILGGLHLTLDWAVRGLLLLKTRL
Nature of the assay: cell-based or functional assay.

Another assay deals with T3, human IL2Ra (human, UniProt P01589 22-240, limits assumed).
T3 construct: bought protein, coated on the plate; also called hIL2RA; IL-2 receptor alpha
T3 sequence (looked up): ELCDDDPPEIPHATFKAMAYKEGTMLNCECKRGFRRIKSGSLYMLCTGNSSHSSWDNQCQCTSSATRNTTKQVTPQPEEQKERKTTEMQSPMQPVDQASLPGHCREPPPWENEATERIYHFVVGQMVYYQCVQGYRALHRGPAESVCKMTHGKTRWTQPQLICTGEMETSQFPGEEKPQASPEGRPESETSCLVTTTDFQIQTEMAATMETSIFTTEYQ
Nature of the assay: IL2Ra direct binding ELISA, signal ratio to isotype control. As for the experimental part:
IL2RA (Peprotech, Germany, #200-02RC) was coated at 1 or 0 μg/ml (buffer only control) in 30 μl coating buffer (Candor, #113500) per well on a 384 well microtiter plate (Maxisorb, Nunc, #460518) over night at 4-8° C. After two washes with 50 μl/well washing buffer (PBS+0.05% Tween, pH 7.4), the plates were incubated for two hours at room temperature with 50 μl/well SmartBlock (Candor, #113500). After blocking, the plates were washed three times with washing buffer. Then, a dilution series of the respective antibody (1E-7 [M] down to 2E-13 [M]) in PBS+0.05% Tween, 10% SmartBlock were added in 30 μl to the microtiter plate and incubated for 90 min at room temperature. After three additional washes, 30 μl anti mouse IgG HRP-conjugated antibody (Biotechne, HAF007), diluted 1:1000 in PBS+0.05% Tween (pH 7.4), were added per well and incubated for one hour. After three additional washes, a mixture of Amplex red (Invitrogen, #12222, 10 mM stock solution in DMSO) 1:1000 diluted in PBS and H2O2 (30%, Merck, #107209)) diluted 1:10000 in PBS were added as substrate with 30 μl per well and incubated for 20 min in the dark. Relative fluorescence was measured with a microtiter plate reader at 535/590 nm.
Next, the 42 antibodies were subjected to an IL2Ra binding ELISA as described in Example 20.
(ELISA stands for enzyme-linked immunosorbent assay.)

B1: TPP-26316 (antibody, V domains shown)
VH: EVQLLESGGGLVQPGGSLRLSCAASGFTFSSYGMHWVRQAPGKGLEWVSVISYDGSYKYYADSVKGRFTISRDNSKNTLYLQMNSLRAEDTAVYYCAAGVPDYWGQGTLVTVSS
VL: QSVLTQPPSASGTPGQRVTISCTGSSSNIGAGYDVHWYQQLPGTAPKLLIYSNNERPSGVPDRFSGSKSGTSASLAISGLRSEDEADYYCAAWDMSLNGPVFGGGTKLTVL
In the case of B1, the results for the “RGA Efficacy (%)” value with human IL-11 and with murine IL-11 were 69.4% and 90.4%, respectively. The “RGA IC50” value was 1.6 nM with human IL-11 and 1 nM in the assay with murine IL-11. In addition, the “hIL2RA ELISA Binding: Ratio to Isotpye” value with human IL2Ra was 221 ratio.

B2: TPP-26318 (antibody, V domains shown)
VH: EVQLLESGGGLVQPGGSLRLSCAASGFTFSSYGMHWVRQAPGKGLEWVSVISYDGSYKYYADSVKGRFTISRDNSKNTLYLQMNSLRAEDTAVYYCAAGVPDYWGQGTLVTVSS
VL: QSVLTQPPSASGTPGQRVTISCTGSSSNIGAGYFVHWYQQLPGTAPKLLIYSNNERPSGVPDRFSGSKSGTSASLAISGLRSEDEADYYCAAWDDSLNGPVFGGGTKLTVL
Consider B2, for which, in the assay with human IL-11, the “RGA Efficacy (%)” value came to 45.9% and the “RGA IC50” value was determined as 2.4 nM. Besides, in the assay with murine IL-11, the “RGA Efficacy (%)” value came to 82.3% and the “RGA IC50” value came out at 4.7 nM. Also, the “hIL2RA ELISA Binding: Ratio to Isotpye” value with human IL2Ra turned out to be 267 ratio.

B3: TPP-26321 (antibody, V domains shown)
VH: EVQLLESGGGLVQPGGSLRLSCAASGFTFSSYGMHWVRQAPGKGLEWVSVISYDGSYKYYADSVKGRFTISRDNSKNTLYLQMNSLRAEDTAVYYCAAGVPDYWGQGTLVTVSS
VL: QSVLTQPPSASGTPGQRVTISCTGSSSNIGAGYDVHWYQQLPGTAPKLLIYSNNERPSGVPDRFSGSKSGTSASLAISGLRSEDEADYYCAAWDLSLNGPVFGGGTKLTVL
In the case of B3, in the assay with human IL-11, the “RGA Efficacy (%)” value was 71.3% and the “RGA IC50” value was 2.1 nM. Further, in the assay with murine IL-11, the “RGA Efficacy (%)” value was 93.5% and the “RGA IC50” value is 1.1 nM. Also, the “hIL2RA ELISA Binding: Ratio to Isotpye” value in the assay with human IL2Ra stood at 182 ratio.

B4: TPP-26320 (antibody, V domains shown)
VH: EVQLLESGGGLVQPGGSLRLSCAASGFTFSSYGMHWVRQAPGKGLEWVSVISYDGSYKYYADSVKGRFTISRDNSKNTLYLQMNSLRAEDTAVYYCAAGVPDYWGQGTLVTVSS
VL: QSVLTQPPSASGTPGQRVTISCTGSSSNIGAGYDVHWYQQLPGTAPKLLIYSNEERPSGVPDRFSGSKSGTSASLAISGLRSEDEADYYCAAWDDSLNGPVFGGGTKLTVL
Regarding B4, in the assay with human IL-11, the “RGA Efficacy (%)” value amounted to 70.3% and the “RGA IC50” value was determined as 7.4 nM. In the assay with murine IL-11, the “RGA Efficacy (%)” value amounted to 100% and the “RGA IC50” value was 1.5 nM. In the assay with human IL2Ra, the “hIL2RA ELISA Binding: Ratio to Isotpye” value stood at 260 ratio.

B5: TPP-26317 (antibody, V domains shown)
VH: EVQLLESGGGLVQPGGSLRLSCAASGFTFSSYGMHWVRQAPGKGLEWVSVISYDGSYKYYADSVKGRFTISRDNSKNTLYLQMNSLRAEDTAVYYCAAGVPDYWGQGTLVTVSS
VL: QSVLTQPPSASGTPGQRVTISCTGSSSNIGAEYDVHWYQQLPGTAPKLLIYSNNERPSGVPDRFSGSKSGTSASLAISGLRSEDEADYYCAAWDDSLNGPVFGGGTKLTVL
As for B5, the “RGA Efficacy (%)” value was determined as 69.9% with human IL-11 and 93.2% with murine IL-11. Also, the “RGA IC50” value worked out at 0.99 nM with human IL-11 and 1.2 nM in the assay with murine IL-11. Further, the “hIL2RA ELISA Binding: Ratio to Isotpye” value in the assay with human IL2Ra came to 31 ratio.

B6: TPP-26319 (antibody, V domains shown)
VH: EVQLLESGGGLVQPGGSLRLSCAASGFTFSSYGMHWVRQAPGKGLEWVSVISYDGSYKYYADSVKGRFTISRDNSKNTLYLQMNSLRAEDTAVYYCAAGVPDYWGQGTLVTVSS
VL: QSVLTQPPSASGTPGQRVTISCTGSSSNIGAGYDVHWYQQLPGTAPKLLIYSNNEKPSGVPDRFSGSKSGTSASLAISGLRSEDEADYYCAAWDDSLNGPVFGGGTKLTVL
For the molecule B6, in the assay with human IL-11, the “RGA Efficacy (%)” value was found to be 48.6% and the “RGA IC50” value was found to be 7.4 nM. For the same molecule, in the assay with murine IL-11, the “RGA Efficacy (%)” value turned out to be 91.1% and the “RGA IC50” value came out at 1.5 nM. In the assay with human IL2Ra, the “hIL2RA ELISA Binding: Ratio to Isotpye” value was found to be 235 ratio.
